According to patent US12630600B2 (MEDIMMUNE LIMITED, priority 2022, dated 2026):
Values joined by “and” are separate entries in the source; they are usually repeats but may differ in a detail not shown here. Equal entries are not always repeated. Where two headings read alike, the source gives them in different places. Each block holds one molecule with its values, some of them ahead of it. Starred links: 1 amine or outer side, 2 acyl side, 3 side chain; linkers in the order of their positions; H or OH if unused. Non-standard residues stand in square brackets, D forms with d. Groups on a side chain read outwards from the residue. Primed or numbered codes have the meaning given here. No end group written: not given here. *: point of attachment. β‑dimethylArg = (S)-2-amino-5-guanidino-3,3-dimethylpentanoic acid, CC(C)(CCNC(=N)N)[C@H](N[*:1])C(=O)[*:2]; C20 diacid = O=C(O)CCCCCCCCCCCCCCCCCCC(=O)*; C18 diacid = O=C(O)CCCCCCCCCCCCCCCCC(=O)*; Dip = N[C@H](C(=O)O)C(c1ccccc1)c1ccccc1; γGlu = O=C(O)[C@H](CCC(=O)[*:2])N[*:1]; Palmitoyl = CCCCCCCCCCCCCCCC(=O)*; αMeF = C[C@](N)(Cc1ccccc1)C(=O)O; Myristoyl = CCCCCCCCCCCCCC(=O)*; (PEG)2 = polyethylene glycol 2; PEG2′ = polyethylene glycol 2; AEEA = NCCOCCOCC(=O)O; Aib = CC(C)(N)C(=O)O

How the values were obtained:
[1] = biological target: T1, Semaglutide (synthetic construct)
T1 sequence (peptide, Aib at 2; X20=Lys[O2Oc-O2Oc-γE-C18diacid]; C-terminal acid): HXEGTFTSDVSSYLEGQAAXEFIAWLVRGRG

Male C57Bl/6 mice = assay: Mouse acute food intake study; type: in vivo; details: s.c., food intake at 24 h vs vehicle
Method: Male C57Bl/6 mice obtained from Jackson Laboratories or Charles River at 8-9 weeks of age and were housed one per cage in BioDaq (Research Diets) cages. Mice were placed on Alpha Dri bedding, standard chow diet (Envigo, 2018) and given water pouches. Mice were allowed to acclimate for 1-2 weeks. Body weight was measured to ensure appropriate acclimation. After acclimation, mice were sham dosed a minimum of 2 times prior to initiation of food intake study. On study day, mice were placed in clean cage bottoms, weighed, and fasted for 6-8 hours. Mice were sorted into groups based on average 24-hour food intake data and body weight. 1-2 hours prior to lights out, mice were dosed subcutaneously with one vehicle or test peptide dissolved in an appropriate vehicle at 5 mL/kg. Mice were left undisturbed and allowed access to food and water for 48 hours. Automated food intake was monitored in the BioDaq system was monitored during this time. Discrete food intake data was exported into MS Excel from which cumulative food intake data was generated and analyzed.

GLP-1R knockout mice = assay: Glucose change in GLP-1R knockout mice; type: in vivo, mouse; details: GLP-1R KO mice, s.c., no somatostatin pretreatment
Method: (§1) They acclimated for a minimum of ˜1-2 weeks, and mice were sorted into groups (n=4-8/group) based on body weight. On day of study, mice were fasted briefly for 2 hrs prior to study start. In some studies, mice were pre-treated with octreotide (BaChem, 10 mg/kg) at 30 minutes prior to peptide injection. Glucose was measured via glucometer at various timepoints including −30 min (prior to octreotide when used in studies), 0 min (before peptide dose), 30, 60, 120, 180, 240, and 360 minutes. Since these studies are acute in nature, mice were re-used for multiple studies (no more than 3) and always allowed at least a minimum wash-out period of 1 week.

wildtype (WT) mice = assay: Glucose change in wildtype mice; type: in vivo, mouse; details: s.c., no somatostatin pretreatment
Method: as §1, with “[…] and wildtype (WT) mice at 8-14 weeks of age were singly housed on standard chow diet (Envigo, 2918) and automatic water. They” for “They”

[2] = biological target: T1, Semaglutide (synthetic construct); remark: listed apart in the source
human GLP-1 receptor [3] = biological target: T2, human GLP-1 receptor (human, UniProt P43220); assay: cell-based or functional assay
human glucagon receptor [4] = biological target: T3, human glucagon receptor (human, UniProt P47871); assay: cell-based or functional assay
human GLP-1 receptor [5] = biological target: human GLP-1 receptor (human, UniProt P43220); assay: cell-based or functional assay; remark: listed apart in the source
human glucagon receptor [6] = biological target: human glucagon receptor (human, UniProt P47871); assay: cell-based or functional assay; remark: listed apart in the source
[7] = biological target: GLP-1R of the mouse (present in wildtype mice, absent in GLP-1R knockout mice) (mouse, UniProt O35659); assay: cell-based or functional assay
human GLP-1 receptor [8] = biological target: T2, human GLP-1 receptor; assay: cell-based or functional assay; remark: listed apart in the source
human glucagon receptor [9] = biological target: T3, human glucagon receptor; assay: cell-based or functional assay; remark: listed apart in the source
human GLP-1 receptor [10] = biological target: T2, human GLP-1 receptor; assay: cell-based or functional assay; remark: listed apart in the source
human glucagon receptor [11] = biological target: T3, human glucagon receptor; assay: cell-based or functional assay; remark: listed apart in the source

% intact peptide over time (min), 30 (% intact peptide at 30 min) [1]: 14
Molecule: porcine pancreatic pepsin (from UniProt P00791) (enzyme)

% intact peptide over time, 24 hr (% intact peptide at 24 hr) [2]: 48
Molecule: recombinant Neprilysin (from UniProt P08473) (enzyme)

hGLP-1R EC50 (pM) (human GLP-1 receptor [3]): 797 pM
hGluc-R EC50 (pM) (human glucagon receptor [4]): 1240 pM
Molecule: H[Aib]HGS[αMeF]TSDVSK[αMeF]LDSQAAQD[αMeF]VK([AEEA-AEEA-γGlu-γGlu-C20 diacid])[Aib]IANT-NH2 [Peptide 384]

hGLP-1R EC50 (pM) (human GLP-1 receptor [3]): 71.8 pM
hGluc-R EC50 (pM) (human glucagon receptor [4]): 85.7 pM
Molecule: H[Aib]HGS[αMeF]TSDVSK[αMeF]LDSRAAQD[αMeF]VK([AEEA-AEEA-γGlu-C18 diacid])SIANT-NH2 (not fully specified) [Peptide 379]

hGLP-1R EC50 (pM), cAMP production (HTRF) (human GLP-1 receptor [5]): 44.9 pM
hGluc-R EC50 (pM), cAMP production (HTRF) (human glucagon receptor [6]): 101 pM
Molecule: H[Aib]QGTFTSDVSK[αMeF]LDTK([AEEA-AEEA-γGlu-C18 diacid])RAQDFVRWLLEAG-OH [Peptide 186]

WT % glucose change 120 min [7]: -45 % glucose change at 120 min, WT mice, 30 nmol/kg
Molecule: HSQGS[αMeF]TSDVSKK([(PEG)2-(PEG)2-γGlu-γGlu-Palmitoyl])LDS[β‑dimethylArg]AAQD[αMeF]VE[Aib]LANT-NH2 [Peptide 399]

hGLP-1R EC50 (pM) (human GLP-1 receptor [3]): 917 pM
hGluc-R EC50 (pM) (human glucagon receptor [4]): 550 pM
B2: Peptide 357 (peptide)
peptide: HXHGSXTSDVSKXLDSQAAQDFVXWIANT
modifications: Aib at 2; αMePhe at 6, 13; Lys 24 acylated K(γE-γE-(PEG)2-γE-γE-C20diacid)24; C-terminal amide

WT % glucose change 120 min [7]: -16.1 % glucose change at 120 min, WT mice, 30 nmol/kg
Molecule: H[Aib]HGS[αMeF]TSDVSK[αMeF]LDSRAAKD[αMeF]VQWIANT-NH2 (not fully specified (residue 20); also: X13: αMePhe or Y (table)) [Peptide 289]

More lines, now with the values behind:

Molecule: H-Aib-Q-G-T-F-T-S-D-V-S-K-αMePhe-L-D-T-K-R-A-R-D-F-V-Q-W-L-L-E-Aib-G-acid [Peptide 195]
24 hr % Vehicle Food Intake (Male C57Bl/6 mice; dose 1 nmol/kg): 102.1%
24 hr % Vehicle Food Intake (Male C57Bl/6 mice; dose 3 nmol/kg): 84.0%
24 hr % Vehicle Food Intake (Male C57Bl/6 mice; dose 10 nmol/kg): 58.2% and 49.9%
GLP-1R KO % glucose change −60 min (GLP-1R knockout mice; 10 nmol/kg): 35.3%
GLP-1R KO % glucose change −60 min (GLP-1R knockout mice; 30 nmol/kg): 48.0%
WT % glucose change 60 min (wildtype (WT) mice; 10 nmol/kg): 1.4%
WT % glucose change 60 min (wildtype (WT) mice; 30 nmol/kg): −17.0%

B1: Peptide 382 (peptide)
peptide: H[Aib]HGS[αMeF]TSDVSK[αMeF]LDSR[Aib]AQDFVK([AEEA-AEEA-γGlu-γGlu-C18 diacid])SIANTGG-NH2
modifications: N-terminus assumed
SMILES: CC[C@H](C)[C@H](NC(=O)[C@H](CO)NC(=O)[C@H](CCCCNC(=O)COCCOCCNC(=O)COCCOCCNC(=O)CC[C@H](NC(=O)CC[C@H](NC(=O)CCCCCCCCCCCCCCCCC(=O)O)C(=O)O)C(=O)O)NC(=O)[C@@H](NC(=O)[C@H](Cc1ccccc1)NC(=O)[C@H](CC(=O)O)NC(=O)[C@H](CCC(N)=O)NC(=O)[C@H](C)NC(=O)C(C)(C)NC(=O)[C@H](CCCNC(=N)N)NC(=O)[C@H](CO)NC(=O)[C@H](CC(=O)O)NC(=O)[C@H](CC(C)C)NC(=O)[C@](C)(Cc1ccccc1)NC(=O)[C@H](CCCCN)NC(=O)[C@H](CO)NC(=O)[C@@H](NC(=O)[C@H](CC(=O)O)NC(=O)[C@H](CO)NC(=O)[C@@H](NC(=O)[C@](C)(Cc1ccccc1)NC(=O)[C@H](CO)NC(=O)CNC(=O)[C@H](Cc1c[nH]cn1)NC(=O)C(C)(C)NC(=O)[C@@H](N)Cc1c[nH]cn1)[C@@H](C)O)C(C)C)C(C)C)C(=O)N[C@@H](C)C(=O)N[C@@H](CC(N)=O)C(=O)N[C@H](C(=O)NCC(=O)NCC(N)=O)[C@@H](C)O
hGLP-1R EC50 (pM) (human GLP-1 receptor [3]): 56 pM
hGluc-R EC50 (pM) (human glucagon receptor [4]): 329 pM

Molecule: H[Aib]QGS[αMeF]TSDVSKILDSK([(PEG)2-(PEG)2-γGlu-γGlu-Myristoyl])AAQD[αMeF]VQ[Aib]IINT-NH2 [Peptide 126]
WT % glucose change 120 min [7]: -46.2 % glucose change at 120 min, WT mice, 30 nmol/kg

Molecule: H[Aib]HGS[αMeF]TSDVSKKLDSRAAQD[αMeF]VQ[Aib]IANT-NH2 (not fully specified (residue 13)) [Peptide 406 of Table 10]
hGLP-1R EC50 (pM) (human GLP-1 receptor [8]): 458 pM
hGluc-R EC50 (pM) (human glucagon receptor [9]): 7310 pM

Molecule: H[Aib]HGS[αMeF]TSDK([AEEA-AEEA-γGlu-C18 diacid])SK[αMeF]LDSRAAQD[αMeF]VQ[Aib]IANT (not fully specified (C-terminus)) [Peptide 393 of Table 9]
hGLP-1R EC50 (pM) (human GLP-1 receptor [10]): 0.458 pM

Molecule: HSQGS[αMeF]TSDVSK[Dip]LDSK([PEG2′-PEG2′-γGlu-γGlu-Myristoyl])AAQD[αMeF]VE[Aib]IINT-NH2 [Peptide 63]
WT % glucose change 120 min [7]: -26.4 % glucose change at 120 min, WT mice, 10 nmol/kg

B3: Peptide 392 of Table 9 (peptide)
peptide: H[Aib]HGS[αMeF]TSDK([AEEA-AEEA-γGlu-C18 diacid])SK[αMeF]LDSRAAQD[αMeF]VQ[Aib]IANT-NH2
modifications: N-terminus assumed
SMILES: CC[C@H](C)[C@H](NC(=O)C(C)(C)NC(=O)[C@H](CCC(N)=O)NC(=O)[C@@H](NC(=O)[C@](C)(Cc1ccccc1)NC(=O)[C@H](CC(=O)O)NC(=O)[C@H](CCC(N)=O)NC(=O)[C@H](C)NC(=O)[C@H](C)NC(=O)[C@H](CCCNC(=N)N)NC(=O)[C@H](CO)NC(=O)[C@H](CC(=O)O)NC(=O)[C@H](CC(C)C)NC(=O)[C@](C)(Cc1ccccc1)NC(=O)[C@H](CCCCN)NC(=O)[C@H](CO)NC(=O)[C@H](CCCCNC(=O)COCCOCCNC(=O)COCCOCCNC(=O)CC[C@H](NC(=O)CCCCCCCCCCCCCCCCC(=O)O)C(=O)O)NC(=O)[C@H](CC(=O)O)NC(=O)[C@H](CO)NC(=O)[C@@H](NC(=O)[C@](C)(Cc1ccccc1)NC(=O)[C@H](CO)NC(=O)CNC(=O)[C@H](Cc1c[nH]cn1)NC(=O)C(C)(C)NC(=O)[C@@H](N)Cc1c[nH]cn1)[C@@H](C)O)C(C)C)C(=O)N[C@@H](C)C(=O)N[C@@H](CC(N)=O)C(=O)N[C@H](C(N)=O)[C@@H](C)O
hGLP-1R EC50 (pM) (human GLP-1 receptor [10]): 312 pM
hGluc-R EC50 (pM) (human glucagon receptor [11]): 6920 pM
